# Measured values published in patent US20230357810A1, “NEOPINONE ISOMERASE AND METHODS OF USING” (Antheia, Inc., priority 2017, published 2023).
# B1: NISO: neopinone isomerase polypeptide of Papaver somniferum, SEQ.ID NO: 2; recombinant, His6-tagged, from E. coli (protein, listed as Papaver somniferum)
# chain: MDSVSAALVFHSSIYLCAMAHHGVSGLVGKIVTELEVNCNADEFYKILKRDEDVPRAVSDLFPPVKIAKGDGLVSGCIKEWDCVLDGKAMSGKEETTHNDETRTLRHRELEGDLMKDYKKFDSIIEVNPKPNGHGSIVTWSIEYEKMNEDSPAPFAYLASFHQNVVEVDSHLCLSE
# modifications: His6 tag
# notes: recombinant, His6-tagged, from E. coli
# B2: PR10-8: PR-polypeptide of Papaver somniferum similar to NISO, SEQ.ID NO: 38 (protein, listed as Papaver somniferum)
# chain: MAHHGVSGLVGKLVTQLEVNCDADEFYKIWKHHEEVPKAVSHFFPAVKVVKGDGLVSGCIKEWHYILEGKAMSAMEETTHNDETRTLHHQVVEGEVMKDYKAIASIIQVNPNPNGHGSIVTWSIEYEKMNEDSPTPFAYLEFFHQNIIDMNSHLYVGSDSHLHVDE
# B3: MorB: morphine reductase from Pseudomonas putida M10, SEQ.ID NO: 22, expressed in yeast (protein, listed as Papaver somniferum)
# chain: MPDTSFSNPGLFTPLQLGSLSLPNRVIMAPLTRSRTPDSVPGRLQQIYYGQRASAGLIISEATNISPTARGYVYTPGIWTDAQEAGWKGVVEAVHAKGGRIALQLWHVGRVSHELVQPDGQQPVAPSALKAEGAECFVEFEDGTAGLHPTSTPRALETDEIPGIVEDYRQAAQRAKRAGFDMVEVHAANACLPNQFLATGTNRRTDQYGGSIENRARFPLEVVDAVAEVFGPERVGIRLTPFLELFGLTDDEPEAMAFYLAGELDRRGLAYLHFNEPDWIGGDITYPEGFREQMRQRFKGGLIYCGNYDAGRAQARLDDNTADAVAFGRPFIANPDLPERFRLGAALNEPDPSTFYGGAEVGYTDYPFLDNGHDRLG
# Assays:
# [1] = system: neopine formation in the presence of COR; assay: Neopine formation with PR10-8 mutant proteins, NISO or NISO mutants and COR (FIG. 13); type: biochemical
# Procedure: Neopine formation in the presence of the mutant proteins and COR was assessed, and compared to neopine formation using COR and NISOΔ1, NISOΔ2, and NISOΔ3. In the absence of NISO, neopine constitutes about 25% of the reaction product. Neopine formation can be reduced to 5% or less in the presence of NISO. Consistent with the previous experiment, in the presence of NISOΔ1, NISOΔ2, or NISOΔ3 an increase in neopine is observed, relative to wildtype NISO. […] Thus the relatively modest sequence differences between Domains Δl, Δ2, Δ3, Δ4 of NISO and PR10-8 nevertheless are significant with respect to the ability to suppress neopine production in the presence of COR.
# [2] = system: codeinone and morphinone substrates; assay: COR-B assay alone or together with NISO, substrate conversion and products formed (FIG. 16); type: biochemical; conditions: 20 mins
# Procedure: Assay mixtures containing purified recombinant COR-B (~0.1 µg) alone, or purified recombinant COR-B (~0.1 µg) together with purified recombinant NISO (0.196 µg) (1:4 molar ratio), Na-ascorbate cofactor, and 1 mM NADPH, were incubated for 20 mins using one of the following substrates: codeine, neopine, morphine, neopmorphine, codeinone and morphinone. The percentages substrate conversion and products formed were determined.
# thebaine = assay: NISO-coupled T6ODM-COR-CODM assay with thebaine as substrate, LC-MS/MS; type: biochemical; conditions: CODM plus NISO vs without NISO, 100 µM thebaine, 30° C., 1 hr
# [3] = system: Yeast strains with chromosomally integrated T6ODM; assay: Hydrocodone production in yeast strains with chromosomally integrated T6ODM (FIG. 14); type: cell-based
# [4] = COR-B and NISO together vs COR-B alone
molecule,measurement,setting,value
B1,neopine formation (share of the reaction product),[1]; about 25% in the absence of NISO,≤ 5%
same,product codeine formed from codeinone substrate,[2]; [4],substantial increase
same,product morphine formed from morphinone substrate,[2]; [4],substantial increase
same,codeinone substrate turnover increase,[2]; COR-B plus NISO (1:4 molar ratio) vs COR-B alone,~2 fold
same,codeine production,thebaine,increases substantially
same,morphine production,thebaine,increases
same,neopine production,thebaine,reduced
B2,ability to reduce neopine production,[1],unable to reduce neopine production
B3,production of hydrocodone,[3],trace amounts
